Reference: the DeepSol protein solubility set

Assay: soluble on expression in E. coli; label from the status in PepcDB or PDB records

Row | Sequence | soluble on expression in E. coli
1 | MARKKQFDYFGELNQLATNAYEAAKVLQEIVDNYSLENLVKKSEAIHQLEKENDEIVRKILNELYISFITPIDREDIVDITDHLDNIIDSINSLSYLLDHLVVEEMIAPALELTAYIVKATEGVKSATKEFAKFKNSKTLVSLIDEVNTIESQGDKLYSSAMKDLMTNEKDLLKVIKWKDVYDQLERTINDCESAVNIIVGIVIKNTLEHHHHHH | soluble
2 | MARLTVHTLETAPEAAKARVEAVLQNNGFIPNLIGVLSNAPEALAFYQEVGKLNAANSLTAGEVEVIQIIAARTNQCGFCVAGHTKLATLKKLLSEQSVKAARALAAGEFDDAKLGALAAFTQAVMAKKGAVSDEELKAFFDAGYNQQQAVEVVMGVALATLCNYVNNLGQTEINPELQAYA | soluble
3 | MARTREFDTEAAVSRAMELFWTRGYEATSVRDLTGHLGIGQGSLYAAFGDKDGLYRAALEHYRTTLAAAALRSLEEGTDARSAIRTMLVERIRIAVDDNGRGCLAVNAACERLPEDAATRRTVRDMQDAGRDALTEVLRVAAERGEIAKRHDPHTLAAFLVTFLNGLLVSSKITPDVRALEPLVEVALAALD | not soluble
4 | MASECVDENSKPWMRVTVSCALLPEVLKQGAEAGGAVKLTGNPSEQSSEDGSHHCSSNFQNSPVTSDLSVLDASPCGLPAEKRKPPHRETSISSNASQSEREIAPTATRRLSPKPETATLSPSESSSLTAATLSNCSSRVQSSSDEKIGNCPSTSACSVSQTTASSEAPSWLSSGASTAQVLSERRGSIEEQPAPETSAAAVRVSRSSSDSENLFASCSASLRNLEPDDISDPENEAAAPACAETGASRAQDAAAVRADAENLGEGESHMETASTRAESLAKDAISSKVSRRGSAHTSSDASGQCQDALPSVGEGKPGEMNGREEDGEAEKPEASAESLQGSDGQANESEAPKPGGGRVDAKMRAKFKREFVRSWVDINRAPSWPPIKKNKYLSSDWKRVDLRTAAGEIRVETKKHRLFLNDLCFLFDGVYTQKSTLGRKAGLGLFCERPEGLHKGQIITEFVGWLVDRDLAESYRKQRTASHIVAVQKGFLYIDGAKEPAYGMGGGSFANDGSEFLGGPGNNAQFYHWFDDELGRTRVFLRATADIKNGEEIFVPYHKTYWVDNFEEQAENCPDAFKQRKLEQLRRRYKNPEFVHIPHREEVAMREREEAERRKRDKEESEKKKAAAKQPRCPVKRPCSAYLLFSVARRKELLKACGILSKGDDEPASQQVSESPEVPREGQRKRRASSASQAAAPVPAAANKRRKAEKDEPSSPEETKRGQVVAAAGLKRGAARPACVGDETAQKLAGWLAKDGAANVRTLCAELTREVAREWGNMRPEEKKPWEQLAEKEKIRYAKAVRTWREKLKKKKSGRETATRKRKVPCSRKGHGTEKGEKAGKVKPQADTSPREAAPEGTETRDHEDVQAGAKDRAATQKER | soluble
5 | MASENNGSRSDSESITAPKADSTVVEPRKIALITGITGQDGSYLTEFLLGKGYEVHGLIRRSSNFNTQRINHIYIDPHNVNKALMKLHYADLTDASSLRRWIDVIKPDEVYNLAAQSHVAVSFEIPDYTADVVATGALRLLEAVRSHTIDSGRTVKYYQAGSSEMFGSTPPPQSETTPFHPRSPYAASKCAAHWYTVNYREAYGLFACNGILFNHESPRRGENFVTRKITRALGRIKVGLQTKLFLGNLQASRDWGFAGDYVEAMWLMLQQEKPDDYVVATEEGHTVEEFLDVSFGYLGLNWKDYVEIDQRYFRPAEVDNLQGDASKAKEVLGWKPQVGFEKLVKMMVDEDLELAKREKVLVDAGYMDAKQQPLEHHHHHH | soluble
6 | MASEQEKTADFGFRTVAKDEKEVMVAEVFHSVAAKYDLMNDLMSFGIHRIWKRFTIECSGVRRNQRVLDLAGGTGDLTAKFSRMVGEGGEVILADINASMLKVGREKLRNKGIIDNINYVQANAEALPFPDDFFDCITISFGLRNVTDKNKALRSMYRVLKPGGRLLVLEFSKPVIKQLSTIYDAYSFHILPRIGEAVASDAGSYRYLAESIRMHPDQETLKGMMSDAGFDSVNYFNLTGGIVALHRGFKFLEHHHHHH | not soluble
7 | MASGDLVRYVITVMLHEDTLTEINELNNYLTRDGFLLTMTDDEGNIHELGTNTFGLISTQSEEEIRELVSGLTQSATGKDPEITITTWEEWNSNRK | soluble
8 | MASGQFVNKLQEEVICPICLDILQKPVTIDCGHNFCLKCITQIGETSCGFFKCPLCKTSVRKNAIR | soluble
9 | MASHKLLVTPPKALLKPLSIPNQLLLGPGPSNLPPRIMAAGGLQMIGSMSKDMYQIMDEIKEGIQYVFQTRNPLTLVISGSGHCALEAALVNVLEPGDSFLVGANGIWGQRAVDIGERIGARVHPMTKDPGGHYTLQEVEEGLAQHKPVLLFLTHGESSTGVLQPLDGFGELCHRYKCLLLVDSVASLGGTPLYMDRQGIDILYSGSQKALNAPPGTSLISFSDKAKKKMYSRKTKPFSFYLDIKWLANFWGCDDQPRMYHHTIPVISLYSLRESLALIAEQGLENSWRQHREAAAYLHGRLQALGLQLFVKDPALRLPTVTTVAVPAGYDWRDIVSYVIDHFDIEIMGGLGPSTGKVLRIGLLGCNATRENVDRVTEALRAALQHCPKKKL | soluble
10 | MASIMYTPKDIFEQEFKSSMRGYDKKEVDEFLDDIIKDYETYISTIEELRQENTRLKEEVKQAKKRQEAAQTTVSPAASVSSSRVATTATNFDILKRISRLEKEVFGKQITE | not soluble
11 | MASISRFRGCLAGALLGDCVGAVYEAHDTVSLASVLSHVESLEPDPGTPGSARTETLYYTDDTAMTRALVQSLLAKEAFDEVDMAHRFAQEYKKDPDRGYGAGVITVFKKLLNPKCRDVYEPARAQFNGKGSYGNGGAMRVAGISLAYSSVQDVQKFARLSAQLTHASSLGYNGAILQALAVHLALQGVSSSEHFLEQLLGHMEELEGDAQSVLDAKELGMEERPYSSRLKKVGELLDQDVVSREEVVSELGNGIAAFESVPTAIYCFLRCMEPHPEIPSTFNSLQRTLIYSISLGGDTDTIATMAGAIAGAYYGMEQVPESWQQSCEGFEETDVLAQSLHRVFQES | soluble
12 | MASKKREVQLQSVVNSQNLWDEMLLNKGLTVIDVYQAWCGPCKAVQSLFRKLKNELNEDEILHFVVAEADNIVTLQPFRDKCEPVFLFSLNGKIIAKIQGANAPLINRKVITLIDEERKIVAGEMDRPQYVEIPLVDAIDEEYGEVQYESAAEVYNMAIIKPDAVLMRKNIEVREKIAKEGFVIEIQENLILPEEVVREFYTHIADQPDFEEFVVSMTNGLSCVLIVSQEDSEVIQEETLPQTDTEEEPGVLEEPHVRFAPVMIKKKRDSLQEYMDRQYMSDYCDVEDDAVKVFKLIDILFPDFKTMKSTNVQTTLALLHPDICEEEKDDVLNVIHNEGFTILMQRQIVLSEEEARTVCKIHENEEYFDNLIGHMTSNHSYVLALRRENGVEYWKTLIGPKTIEEAYASHPQSLCVQFASGNFPTNQFYGSSSKAAAEKEIAHFFPPQSTLALIKPHVTHKERIHRSSRR | not soluble
13 | MASKSQKKVLKKQNKKKKKDPLAPKRALSAYMFYVKDKRLEIIKEKPELAKDVAQVGKLIGEAWGQLSPAQKAPYEKKAQLDKVRYSKEIEEYRKKNQE | soluble
14 | MASLLFRQARVFDGESVHTDYDVLVVDGKIAQLGSAIEAPADAEIIEAHGKTLLPGLIDSHTHAKPPALEMALTFGVTTELDMFSDPAWMTEQRREAQTRNSMADVRSAMTGASVAGGHPTGLVGVVFDKQCPVLENAEDAEAFVAARVAEGADYFKLVIEDGTILGHEVPRLSDEMVYALVAAAHAQGLMAVAHAMTVELALLAIRAGVDGLMHVAGDRLMTDEEVAEVAQSGIFVVPTLSTMASVYGDKHGQHLAEDDRTRPLLSDAWAENLCQCWHLTNPGSTANVIDATRRLYEAGVDVLAGSDAVTVGVPGTAHGVSMHGELELLVDCGLSPAAALRAATLLPAKRFSLDDRGRIAPGLQADLVLVDGDPTTDVRQTLSIEGVWRRGEQAPRIGQAEGVGTASAASAVAG | soluble
15 | MASLRDIKAKINSTKKTSQITKAMEMVSASKLNRAEQNAKSFVPYMEKIQEVVASIAQGSKGINHPMLNARPVKRTGYIVITSDRGLAGGYNSNVLRTVSNVIRERHNMDSNQYSIIVLGRLGRDYLKRRGFNIIDEVVGLSDHPSFTDIKDLASRAIAMFADGAYDELYIYYNHYVSKISQEVTENKILPLTDVASDKPTTAYEFEPSEEEILKVLLPQYAESLVYGALLDGKASEHAARMTAMKSATDNAMEVIDSLTLSFNRARQAAITQEITEIVGGAAALE | not soluble
